# Measurements as given in patent publication US20200239597A1, “AN ANTI-APOPTOTIC FUNCTION OF PKM2 AND INTRACELLULARLY EXPRESSED SCFV ANTIBODIES” (La Jolla Institute for Allergy and Immunology, priority 2017, published 2020).
# How the values were obtained:
# [1] = target: T1, pyruvate kinase M2 (PKM2) (Homo sapiens, UniProt P14618); assay: Target protein immunoprecipitation (FLAG pull-down, mass spectrometry, immunoblot); assay type: binding; conditions: Triton X-100 extracts of 293T cells, anti-FLAG beads
# T1 construct: some intrabodies precipitated specific cellular proteins; endogenous in cells; host or cells: HEK293T (293T)
# Description: FIG. 1 C is a photograph of a non-limiting SDS-PAGE gel with silver stain from an immunoprecipitation assay using antibodies encoded by DNA sequences isolated from FIG. 1B. […] Intrabodies that rescued cells from BimS-induced death were chosen for pull-down analysis as described in Methods. Left panel: Triton™-X-100 (1%) cell extracts were incubated with anti-FLAG beads, then proteins eluted with 3×FLAG peptide and separated by SDS-PAGE with silver stain. Specific bands are marked with dots; some bands (e.g. at 37 and 70 kD) are nonspecific. […] The bands near 25 kD are the scFv polypeptides, whose expression levels varied.
# Flag-tagged intrabody was introduced along with a tandem Strep-tag by PCR into the same lentiviral vector used for selection. 293T cells infected with the intrabody lentivirus were incubated at 30° C. for 72 h as described above. After washing with cold PBS, 5×10^8 cells were lysed for 15 minutes on ice in lysis buffer (50 mM Tris HCl, pH 7.4, 150 mM NaCl, 1 mM EDTA, 1% Triton™ X-100). Cell lysates were clarified by centrifugation for 15 minutes at 4° C. at 16,000×g. The total protein content of the soluble fraction was quantified using the BCA assay. For pull-down experiments, 10 mg of protein lysate was incubated with 200 al of EZview™ Red anti-FLAG® M2 Affini-ty Gel (Sigma-Aldrich) for 2 h at 4° C. Beads were washed 3 times in wash buffer (50 mM Tris HCl, pH 7.4, 150 mM NaCl, 1 mM EDTA, 0.1% Triton X-100). Elution was performed under native conditions by competition with 3×FLAG peptide following the manufacturer's protocol. Eluates were used for the second step purification using Strep-Tactin Superflow Plus™ [Qiagen], following the manufacturer's instructions. The final two-step purified protein was used for SDS-PAGE analysis. Bands of interest were cut out from the gel and subjected to in-gel digestion with trypsin (Promega, Fitchburg, Wis., USA) followed by MALDI TOF/TOF mass spectrometry analysis (Biomolecular and Proteomics Mass Spectrometry Facility, University of California at San Diego).
# 293T cells = assay: siRNA silencing of PKM2, rescue from BimS killing; assay type: cell-based, human; conditions: 30 nM PKM2-specific siRNA
# Description: 5×10^5 cells were incubated per well for 12 h, then cells were either mock-transfected, transfected with 30 nM PKM2-specific siRNA (si M2), or transfected with NF-kB p50-specific siRNA (si p50). After a further 36-h incubation, samples of the same siRNAs were added along with 4 μg of BimS cDNA in fresh medium. Viable cells were counted after another 48-h incubation.
# Untreated or IB5-infected 293T cells (5×10^5 per well) were seeded into 6-well plates (Falcon) and transfected with 30 nM siRNA. Lipofectamine™ 2000 (Invitrogen, Carlsbad, Calif., USA) was used for transient transfection according to the manufacturer's protocol. After a 30-h incubation, fresh medium containing 30 nM siRNA and 4 μg/ml BimS expression plasmid was added. Cell viability assay was assayed after a further 36-h incubation. The PKM2-siRNA and control siRNA were purchased from Dharmacon (SiGENOME SMART™ pool hPKM2, Si156, and ONTARGETplus™ non-targeting siRNA #2) (Goldberg and Sharp, 2012).
# HCT116 and U2OS cells = assay: Clonogenic survival with etoposide or staurosporine; assay type: cell-based; conditions: 150 nM etoposide
# Description: 5×10^5 HCT116 and U2OS cells were plated and transfected with BimS expression plasmid including 150 nM etoposide or 1 μM Staurosporine. The plates were fixed and stained with crystal violet after 5 days and the total areas of colonies were measured. Mean, SD and P values were calculated from 3 individual plates.
# PKM1 = PKM1 (Homo sapiens, UniProt P14618); assay: Blue native gel electrophoresis of recombinant proteins, PKM1; assay type: binding
# [2] = tested on: mitochondria isolated from 293T cells; assay: Mitochondria isolation and cytochrome c release assay (MOMP induced by cleaved Bid); assay type: cell-based, human; conditions: mitochondria from IB5-expressing 293T cells, 30 min at 37° C.
# Description: Control (top) or Intrabody-expressing (bottom) 293T cells were collected and the mitochondrial fraction was isolated by differential centrifugation. To induce MOMP, recombinant cBid protein was added at the indicated concentrations. After incubation for 30 min at 37° C., samples were centrifuged, and cytochrome c (cyt c) content in mitochondrial pellet fractions was analyzed by immunoblot. A representative of three independent experiments is shown. Right panel: densitometric quantification of average cytochrome c content ±SEM from three independent experiments.
# Mitochondria were isolated from 5×10^8 cells as described (Waterhouse et al., 2001). The freshly isolated mitochondria ([…]) were then incubated with recombinant cleaved Bid protein (Kuwana et al., 2002) at the indicated concentrations in the presence or absence of purified scFv #5. After incubation for 30 min at 37° C., mitochondria were collected by centrifugation at 10 000×g and analyzed by immunoblotting as described (Waterhouse et al., 2001).
# PKM2 (K270M) = target: T2, PKM2 (K270M) (Homo sapiens, UniProt P14618, K270M); assay: Blue native gel electrophoresis, PKM2 (K270M); assay type: binding; conditions: not shown
# T2 construct: His (N); made in house; host or cells: Escherichia coli BL21(DE3)
# Description: To begin to define the aspects of PKM2 function required for the IB5-induced anti-apoptotic effect, the present inventors reconstituted PKM2-null MEFs with WT or mutant forms of PKM2. The present inventors first analyzed the K270M mutation, reported to be catalytically dead (Bollenbach et al., 1999; Dombrauckas et al., 2005; Luo et al., 2011).
# U2OS cells = assay: Clonogenic rescue from BimS-induced death, U2OS; assay type: cell-based
# Mfn1, Mfn2 = assay: Immunoblot of Mfn1 and Mfn2 protein levels in reconstituted MEFs; assay type: cell-based, mouse
# MDA-MB231 = assay: Clonogenic rescue from BimS-induced death, MDA-MB231; assay type: cell-based; conditions: parental MDA-MB231
# Description: Control or IB5-expressing cells were transfected with BimS cDNA. The plates were fixed and stained with crystal violet after 12 days and the total areas of colonies were measured. Mean, SD and P values were calculated from 3 individual plates.
# T1 sequence (P14618 whole entry): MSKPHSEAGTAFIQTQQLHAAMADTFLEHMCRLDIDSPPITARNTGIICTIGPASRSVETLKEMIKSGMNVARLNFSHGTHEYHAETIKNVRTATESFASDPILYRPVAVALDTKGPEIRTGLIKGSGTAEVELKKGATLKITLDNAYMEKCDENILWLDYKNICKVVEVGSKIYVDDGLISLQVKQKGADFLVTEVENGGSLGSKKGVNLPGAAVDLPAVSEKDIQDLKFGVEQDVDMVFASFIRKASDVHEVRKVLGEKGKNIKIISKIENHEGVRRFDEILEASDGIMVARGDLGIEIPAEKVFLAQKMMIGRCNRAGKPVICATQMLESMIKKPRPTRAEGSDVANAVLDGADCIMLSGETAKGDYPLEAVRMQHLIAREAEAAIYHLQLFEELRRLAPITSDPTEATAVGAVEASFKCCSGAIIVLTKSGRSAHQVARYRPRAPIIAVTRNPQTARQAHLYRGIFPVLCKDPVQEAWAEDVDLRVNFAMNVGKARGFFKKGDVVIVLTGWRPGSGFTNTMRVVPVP
# Chain of PKM1 (P14618 1-531 isoform P14618-2, species assumed): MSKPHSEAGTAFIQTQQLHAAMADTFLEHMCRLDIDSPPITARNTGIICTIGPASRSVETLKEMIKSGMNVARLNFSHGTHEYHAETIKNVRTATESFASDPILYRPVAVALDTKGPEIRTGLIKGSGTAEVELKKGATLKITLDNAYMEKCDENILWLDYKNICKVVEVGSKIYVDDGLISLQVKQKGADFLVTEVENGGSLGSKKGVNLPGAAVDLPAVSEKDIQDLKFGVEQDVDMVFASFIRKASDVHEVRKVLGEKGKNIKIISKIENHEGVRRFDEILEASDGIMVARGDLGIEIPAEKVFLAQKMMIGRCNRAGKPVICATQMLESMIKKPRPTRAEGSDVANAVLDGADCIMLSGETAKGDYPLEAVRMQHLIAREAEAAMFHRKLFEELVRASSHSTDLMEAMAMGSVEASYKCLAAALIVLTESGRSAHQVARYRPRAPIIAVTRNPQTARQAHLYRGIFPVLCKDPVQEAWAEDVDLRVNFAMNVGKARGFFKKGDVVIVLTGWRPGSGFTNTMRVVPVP
# T2 sequence (P14618 whole entry K270M): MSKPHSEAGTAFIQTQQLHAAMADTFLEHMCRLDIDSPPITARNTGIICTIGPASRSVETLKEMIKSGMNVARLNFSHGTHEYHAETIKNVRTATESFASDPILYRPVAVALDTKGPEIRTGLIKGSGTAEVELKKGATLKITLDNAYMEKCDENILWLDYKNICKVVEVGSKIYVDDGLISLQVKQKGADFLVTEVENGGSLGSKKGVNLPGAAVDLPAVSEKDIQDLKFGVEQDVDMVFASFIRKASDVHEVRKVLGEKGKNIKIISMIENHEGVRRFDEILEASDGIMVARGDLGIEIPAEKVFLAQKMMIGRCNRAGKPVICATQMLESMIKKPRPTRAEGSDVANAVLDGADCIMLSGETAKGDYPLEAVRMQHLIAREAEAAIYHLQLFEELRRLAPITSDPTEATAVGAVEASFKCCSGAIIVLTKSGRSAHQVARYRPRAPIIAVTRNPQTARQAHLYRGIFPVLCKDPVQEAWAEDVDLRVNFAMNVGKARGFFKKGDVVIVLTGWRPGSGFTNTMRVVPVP
molecule,measurement,setting,value
"IB5: intracellularly expressed single-chain antibody (scFv) specific for PKM2, SEQ ID NO: 2; also made as monovalent recombinant scFv in E. coli (protein, artificial intrabody clone 5, also made as monovalent recombinant scFv in E. coli) scFv: MAQVQLVETGPGLVKPSETLSLRCTVSGGSFDNYYWNWIRQPPGKGLEYIGYVFPSTGATNYNPSLGSRVTISLDTSKNQFSLTLTSVTTADTAIYYCVRSGHDLWTGSTWFDPWGQWTTVTVSSGGGGSGGGGSGGGGSEIVLTQSPGTLSLSPGERATLSCRASQSVSSSYLAWYQQKPGQAPRLLIYGASSRATGIPDRFSGSGSGTDFTLTISRLEPEDIAVYYCQQRSNWPRTFGQGTKVEIKRGLGGLASVDYKDDDDK",protein pulled down from cell extracts,[1],pulled down a 55-kD protein now identified as pyruvate kinase M2
same,ability to rescue cells from BimS killing after PKM2 silencing,293T cells,substantial reduction
same,clonogenic survival in cells treated with etoposide,HCT116 and U2OS cells,promoted clonogenic survival
same,shift of electrophoretic mobility of recombinant PKM1,PKM1,failed to shift the electrophoretic mobility
same,resistance of mitochondria to MOMP induced by cleaved Bid protein,[2],reproducibly more resistant than control mitochondria to MOMP
same,stable tetramer formation of PKM2 (K270M),PKM2 (K270M),prevented the protein from forming stable tetramers
same,protection from BimS-induced apoptosis (clonogenicity),U2OS cells,substantially protected
same,levels of Mfn1,"Mfn1, Mfn2; cells expressing the K422R mutant",upregulated Mfn1 even further
same,Mfn2 levels,"Mfn1, Mfn2; reconstituted MEFs",left Mfn2 levels unchanged
same,levels of Mfn1,"Mfn1, Mfn2; reconstituted MEFs",substantially increased
same,rescue from BimS-induced cell death,MDA-MB231,failed to rescue
